Measurements: patent US20070280881A1

Target: TAG-72 (tumor associated antigen TAG-72) (human)
Test: binding data (text calls it ED50), method not stated; ELISA on TAG-72 coated plates per Example 7

Substance	Kd [nM]
CC49.ΔCH2 [gly/ser] (domain deleted CC49 with Gly/Ser spacer) (antibody)	1.8
Humanized CC49 IgG (antibody)	2.5
ddCC49, no spacer (huCC49.ΔCH2, unfractionated mixture of 120 kDa and 240 kDa forms) (antibody)	0.8
